Columns and labels:
[1] = molecular target: T1, human TfR extracellular domain (ECD) (human, UniProt P02786 89-760); assay: phage ELISA, scFv phage on coated TfR, anti-M13-HRP, single point
T1 construct: extracellular domain; Bought protein; also called HuTfR; huTfR

[2] = molecular target: T2, muTfR extracellular domain (ECD), His-tagged (mouse, UniProt Q62351 89-763); assay: competition ELISA on coated muTfR-His against 1 nM biotinylated Ab4, streptavidin-HRP
T2 construct: extracellular domain; Bought protein (Sino Biological); also called muTfR-His; muTfR ECD
Description: High-binding ELISA plates (Corning) were coated with muTfR-His at 2 μg/mL overnight at 4° C. After blocking with 1% BSA PBS, individual antibodies (at designated concentrations) and 1 nM biotinylated TfR Ab4 in 1% BSA PBS were incubated with coated muTfR for 2 hours at room temperature. After washing with PBS+0.05% Tween-20, streptavidin-HRP (Jackson ImmunoResearch) was added at 1:5000 concentration and incubated for 1 hour at room temperature. After washing with PBS+0.05% Tween-20, TMB substrate (Thermo Fisher Scientific) was added and incubated for 5 min before being stopped by 1N H₂SO₄. OD values were read at 450 nm.

[3] = molecular target: T2, muTfR extracellular domain (ECD), …; assay: BLI, biotinylated VEGFA on streptavidin sensors, no antibody, then muTfR ECD
Description: To characterize the bispecific antibodies a BLI-based sandwich capture assay. The bispecific antibodies were first captured onto sensors via VEGF165A. After equilibrium in blank buffer, the sensor-captured bispecific antibodies were then incubated with muTfR ECD. The VEGF-Trap/TfR bispecific antibodies were shown simultaneously binding to both VEGF165 and TfR. To further validate the antigen binding, we introduced another three control groups that missed one of the three binding partners (VEGFA, Ab, or TfR). […] Finally, the flat curves without TfR confirmed the observed binding signals in curves A and E were antibodies binding to TfR.
Streptavidin sensors (Fortebio) were used to capture biotinylated VEGFA proteins (Sino Biological). During all incubation steps, samples were kept at room temperature with 1000 rpm shaking. In the VEGFA loading step, 100 nM biotinylated VEGFA proteins were incubated with the sensors for the designated time. In the bispecific antibody interaction steps, 200 nM antibodies were used. In the muTfR incubation step, 100 nM muTfR-His (Sino Biological) were used. Between incubations, the sensors were dipped into blank kinetic buffers to allow the free dissociation of proteins.

T2 sequence (Q62351 89-763): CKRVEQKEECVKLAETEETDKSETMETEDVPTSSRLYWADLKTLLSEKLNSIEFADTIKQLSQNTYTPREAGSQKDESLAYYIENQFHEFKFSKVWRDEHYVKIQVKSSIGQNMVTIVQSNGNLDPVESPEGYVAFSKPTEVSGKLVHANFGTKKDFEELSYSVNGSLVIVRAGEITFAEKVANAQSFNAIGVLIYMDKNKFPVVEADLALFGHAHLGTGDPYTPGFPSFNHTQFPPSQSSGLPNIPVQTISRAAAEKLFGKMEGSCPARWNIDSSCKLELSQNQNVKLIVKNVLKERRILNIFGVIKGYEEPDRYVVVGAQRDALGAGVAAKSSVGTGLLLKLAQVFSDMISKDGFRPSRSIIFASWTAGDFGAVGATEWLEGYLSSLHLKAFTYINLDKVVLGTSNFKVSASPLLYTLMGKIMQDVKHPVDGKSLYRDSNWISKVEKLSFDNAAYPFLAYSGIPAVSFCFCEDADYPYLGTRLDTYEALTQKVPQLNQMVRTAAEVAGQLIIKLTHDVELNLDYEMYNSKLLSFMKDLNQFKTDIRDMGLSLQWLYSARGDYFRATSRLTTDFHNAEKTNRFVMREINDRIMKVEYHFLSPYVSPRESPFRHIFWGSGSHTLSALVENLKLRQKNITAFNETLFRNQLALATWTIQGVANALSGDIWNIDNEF
T1 sequence (P02786 89-760): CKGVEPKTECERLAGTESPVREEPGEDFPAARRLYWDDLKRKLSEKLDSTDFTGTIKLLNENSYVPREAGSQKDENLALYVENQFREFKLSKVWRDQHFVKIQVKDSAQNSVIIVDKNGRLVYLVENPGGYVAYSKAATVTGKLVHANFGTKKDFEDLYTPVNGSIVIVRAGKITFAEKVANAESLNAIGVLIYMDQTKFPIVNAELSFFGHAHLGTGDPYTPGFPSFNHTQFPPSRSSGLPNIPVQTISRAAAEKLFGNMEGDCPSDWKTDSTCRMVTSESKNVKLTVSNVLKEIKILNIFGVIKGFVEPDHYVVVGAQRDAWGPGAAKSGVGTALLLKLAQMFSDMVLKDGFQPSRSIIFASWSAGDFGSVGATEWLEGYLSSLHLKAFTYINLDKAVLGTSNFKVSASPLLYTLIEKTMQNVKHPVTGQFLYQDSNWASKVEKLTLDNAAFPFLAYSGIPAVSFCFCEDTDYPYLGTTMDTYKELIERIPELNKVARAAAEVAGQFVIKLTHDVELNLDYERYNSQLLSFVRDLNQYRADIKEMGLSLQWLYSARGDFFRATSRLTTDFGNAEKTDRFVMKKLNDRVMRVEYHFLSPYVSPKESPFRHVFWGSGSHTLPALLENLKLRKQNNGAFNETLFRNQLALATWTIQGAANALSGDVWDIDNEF

B1: 3H8 (antibody, V domains shown)
VH: QVQLVQSGAEVKKPGESLRISCKGSGYSFTSYWISWVRQMPGKGLEWMGRIDPSDSYTNYSPSFQGHVTISADKSISTAYLQWSSLKASDTAMYYCARHPPRSTRGDYGMDVWGQGTMVTVSS
VL: QAVVTQPPSVSGTPGQRVTISCSGSNSNIGSYIVNWYQQLPGTAPKLLIWGNDRRPSGVPDRVSASKSGTSASLAISGLQSEDEGDYYCAAWDNILNNYVFGPGTQLTVL
notes: Human IgG1, converted from a phage scFv clone
binding result [1]: binds

B2: VEGF-Trap (Fc fusion, UniProt P17948 129-230, looked up)
chain: SDTGRPFVEMYSEIPEIIHMTEGRELVIPCRVTSPNITVTLKKFPLDTLIPDGKRIIWDSRKGFIISNATYKEIGLLTCEATVNGHLYKTNYLTHRQTNTIIDVVLSPSHGIELSVGEKLVLNCTARTELNVGIDFNWEYPSSKHQHKKLVNRDLKTQSGSEMKKFLSTLTIDGVTRSDQGLYTCAASSGLMTKKNSTFVRVHEK
notes: domain: D2 domain;domain: D3 domain; Designed on aflibercept; also called VEGF-Trap positive control; not shown: human Fc fragment
binding result [2]: no binding

B3: VEGFA (VEGF165) (ligand, human, UniProt P15692-4 27-191, looked up)
chain: APMAEGGGQNHHEVVKFMDVYQRSYCHPIETLVDIFQEYPDEIEYIFKPSCVPLMRCGGCCNDEGLECVPTEESNITMQIMRIKPHQGQHIGEMSFLQHNKCECRPKKDRARQENPCGPCSERRKHLFVQDPQTCKCSCKNTDSRCKARQLELNERTCRCDKPRR
notes: also called VEGF165A; human VEGFA
binding result [3]: no binding (tested: 100 nM muTfR-His)

— patent publication US20240376222A1 (University of Texas, published 2024)
